This passage reports abundance fitness results from the Human Domainome abundance scans (Beltran et al. 2025).

B1: 1-phosphatidylinositol 4,5-bisphosphate phosphodiesterase gamma-2, residues 772 to 827; numbered along this chain, P16885 (parent)
chain: RTVKALYDYKAKRSDELSFCRGALIHNVSKEPGGWWKGDYGTRIQQYFPSNYVEDI

± gives the uncertainty stated by the source.

The variants in this series derive from B1. As to the kind of experiment: abundance fitness (aPCA) (normalised: wild type 0, dead -1); higher = more abundant; growth selection in yeast, the domain comes from the species named. The following applies: Homo sapiens.
Take RTVKALYDYKAKRSDELSFCRGALIHNVSKEPGGWWKGDYGTRIQQCFPSNYVEDI: the abundance fitness is -0.401 ± 0.12.

Regarding RTVKALYDYKAKRSDELSFCRGALIHNVSKEPGGWWKGDYGTRIQCYFPSNYVEDI, the abundance fitness is -0.193 ± 0.11.

RTVKALYDYKAKRSDELSFCRGALIHNVSKEPGGWWKGDYGTRIQVYFPSNYVEDI: the abundance fitness was -0.653 ± 0.092.

RTVKALYDYKAKRSDELSFCRGALIHNVSKEPGGWWKGDYGTRIQEYFPSNYVEDI: the abundance fitness is -0.684 ± 0.39.

RTVKALYDYKAKRSDELSFCRGALIHNVSKEPGGWWKGDYGTRIQDYFPSNYVEDI: the abundance fitness was -0.673 ± 0.21.

For RTVKALYDYKAKRSDELSFCRGALIHNVSKEPGGWWKGDYGTRIQRYFPSNYVEDI, the abundance fitness was -0.175 ± 0.073.

With RTVKALYDYKAKRSDELSFCRGALIHNVSKEPGGWWKGDYGTRIQKYFPSNYVEDI, the abundance fitness was -0.067 ± 0.097.

Consider RTVKALYDYKAKRSDELSFCRGALIHNVSKEPGGWWKGDYGTRIQSYFPSNYVEDI, for which the abundance fitness turned out to be 0.054 ± 0.077.

Consider RTVKALYDYKAKRSDELSFCRGALIHNVSKEPGGWWKGDYGTRIQYYFPSNYVEDI, for which the abundance fitness is -0.223 ± 0.17.

With RTVKALYDYKAKRSDELSFCRGALIHNVSKEPGGWWKGDYGTRIQAYFPSNYVEDI, the abundance fitness is 0.053 ± 0.06.

For the variant RTVKALYDYKAKRSDELSFCRGALIHNVSKEPGGWWKGDYGTRIQMYFPSNYVEDI, the abundance fitness was found to be 0.006 ± 0.075.

With RTVKALYDYKAKRSDELSFCRGALIHNVSKEPGGWWKGDYGTRIQGYFPSNYVEDI, the abundance fitness turned out to be 0.086 ± 0.071.

Turning to RTVKALYDYKAKRSDELSFCRGALIHNVSKEPGGWWKGDYGTRIQPYFPSNYVEDI, the abundance fitness was -0.866 ± 0.27.

For the variant RTVKALYDYKAKRSDELSFCRGALIHNVSKEPGGWWKGDYGTRIQFYFPSNYVEDI, the abundance fitness is -0.274 ± 0.1.

For RTVKALYDYKAKRSDELSFCRGALIHNVSKEPGGWWKGDYGTRIQLYFPSNYVEDI, the abundance fitness was -0.041 ± 0.062.

For RTVKALYDYKAKRSDELSFCRGALIHNVSKEPGGWWKGDYGTRIQNYFPSNYVEDI, the abundance fitness was -0.114 ± 0.16.

As for RTVKALYDYKAKRSDELSFCRGALIHNVSKEPGGWWKGDYGTRIQWYFPSNYVEDI, the abundance fitness was -0.367 ± 0.086.

Regarding RTVKALYDYKAKRSDELSFCRGALIHNVSKEPGGWWKGDYGTRIQTYFPSNYVEDI, the abundance fitness was -0.391 ± 0.097.

For the variant RTVKALYDYKAKRSDELSFCRGALIHNVSKEPGGWWKGDYGMRIQQYFPSNYVEDI, the abundance fitness was -0.01 ± 0.086.

RTVKALYDYKAKRSDELSFCRGALIHNVSKEPGGWWKGDYGLRIQQYFPSNYVEDI: the abundance fitness is -0.155 ± 0.079.

With RTVKALYDYKAKRSDELSFCRGALIHNVSKEPGGWWKGDYGCRIQQYFPSNYVEDI, the abundance fitness was -0.227 ± 0.17.

With RTVKALYDYKAKRSDELSFCRGALIHNVSKEPGGWWKGDYGVRIQQYFPSNYVEDI, the abundance fitness is -0.165 ± 0.065.

Regarding RTVKALYDYKAKRSDELSFCRGALIHNVSKEPGGWWKGDYGNRIQQYFPSNYVEDI, the abundance fitness is 0.139 ± 0.13.

With RTVKALYDYKAKRSDELSFCRGALIHNVSKEPGGWWKGDYGKRIQQYFPSNYVEDI, the abundance fitness was -0.243 ± 0.13.

With RTVKALYDYKAKRSDELSFCRGALIHNVSKEPGGWWKGDYGRRIQQYFPSNYVEDI, the abundance fitness was found to be 0.03 ± 0.063.

On to RTVKALYDYKAKRSDELSFCRGALIHNVSKEPGGWWKGDYGDRIQQYFPSNYVEDI, for which the abundance fitness was 0.076 ± 0.068.

On to RTVKALYDYKAKRSDELSFCRGALIHNVSKEPGGWWKGDYGFRIQQYFPSNYVEDI, for which the abundance fitness is -0.152 ± 0.043.

In the case of RTVKALYDYKAKRSDELSFCRGALIHNVSKEPGGWWKGDYGSRIQQYFPSNYVEDI, the abundance fitness worked out at 0.054 ± 0.086.

On to RTVKALYDYKAKRSDELSFCRGALIHNVSKEPGGWWKGDYGQRIQQYFPSNYVEDI, for which the abundance fitness was -0.262 ± 0.21.

As to RTVKALYDYKAKRSDELSFCRGALIHNVSKEPGGWWKGDYGYRIQQYFPSNYVEDI, the abundance fitness was -0.385 ± 0.27.

Regarding RTVKALYDYKAKRSDELSFCRGALIHNVSKEPGGWWKGDYGIRIQQYFPSNYVEDI, the abundance fitness is -0.021 ± 0.074.

Regarding RTVKALYDYKAKRSDELSFCRGALIHNVSKEPGGWWKGDYGWRIQQYFPSNYVEDI, the abundance fitness is -0.186 ± 0.045.

As for RTVKALYDYKAKRSDELSFCRGALIHNVSKEPGGWWKGDYGERIQQYFPSNYVEDI, the abundance fitness came to 0.168 ± 0.081.

Turning to RTVKALYDYKAKRSDELSFCRGALIHNVSKEPGGWWKGDYGGRIQQYFPSNYVEDI, the abundance fitness worked out at 0.078 ± 0.052.

With RTVKALYDYKAKRSDELSFCRGALIHNVSKEPGGWWKGDYGARIQQYFPSNYVEDI, the abundance fitness is -0.065 ± 0.06.

As to RTVKALYDYKAKRSDELSFCRGALIHNVSKEPGGWWKGDYGPRIQQYFPSNYVEDI, the abundance fitness came to 0.147 ± 0.13.

Turning to RTVKALYDYKAKRSDELSFCRGALIHNVSKEPGGWWKGDYGTIIQQYFPSNYVEDI, the abundance fitness was -0.377 ± 0.15.

Regarding RTVKALYDYKAKRSDELSFCRGALIHNVSKEPGGWWKGDYGTAIQQYFPSNYVEDI, the abundance fitness was 0.015 ± 0.065.

On to RTVKALYDYKAKRSDELSFCRGALIHNVSKEPGGWWKGDYGTMIQQYFPSNYVEDI, for which the abundance fitness was -0.049 ± 0.079.

Regarding RTVKALYDYKAKRSDELSFCRGALIHNVSKEPGGWWKGDYGTLIQQYFPSNYVEDI, the abundance fitness was -0.139 ± 0.048.

RTVKALYDYKAKRSDELSFCRGALIHNVSKEPGGWWKGDYGTKIQQYFPSNYVEDI: the abundance fitness is -0.018 ± 0.1.

With RTVKALYDYKAKRSDELSFCRGALIHNVSKEPGGWWKGDYGTPIQQYFPSNYVEDI, the abundance fitness is -0.909 ± 0.17.

RTVKALYDYKAKRSDELSFCRGALIHNVSKEPGGWWKGDYGTEIQQYFPSNYVEDI: the abundance fitness was -0.033 ± 0.085.

For RTVKALYDYKAKRSDELSFCRGALIHNVSKEPGGWWKGDYGTCIQQYFPSNYVEDI, the abundance fitness was -0.111 ± 0.11.

As to RTVKALYDYKAKRSDELSFCRGALIHNVSKEPGGWWKGDYGTGIQQYFPSNYVEDI, the abundance fitness is -0.01 ± 0.051.

As to RTVKALYDYKAKRSDELSFCRGALIHNVSKEPGGWWKGDYGTNIQQYFPSNYVEDI, the abundance fitness came to 0.097 ± 0.12.

As to RTVKALYDYKAKRSDELSFCRGALIHNVSKEPGGWWKGDYGTWIQQYFPSNYVEDI, the abundance fitness was -0.167 ± 0.08.
